{"source": "paper PMC12618258", "about": "“The human ribosome modulates multidomain protein biogenesis by delaying cotranslational domain docking” (Nature Structural & Molecular Biology, 2025)", "target": "the molecule itself", "experiment": "SEC-MALS; 100 μl of Ns at 0.1 or 0.2 mg/ml (~5 or 10 µM) on Superdex 200 10/30 increase GL; 20 mM HEPES pH 7.5, 100 mM KCl, 5 mM magnesium acetate, 200 mM arginine-HCl, 1 mM DTT, 2 mM sodium azide"}
{"protein": "isolated Ns (isoNs, residues 1–190) of firefly luciferase (domain or fragment, UniProt P08659 1-190, looked up, firefly luciferase (FLuc, 550 residues), UniProt Q27758_PHOPY, residues 1-190 (Ns subdomain), off the ribosome; The truncations carried an N-terminal His-SUMO tag; The printed monomer mass of ~21.5 kDa fits the cleaved fragment; source: E. coli BL21, purified (HisTrap, Ulp1 cleavage, reverse IMAC, Superdex gel filtration); not shown: His, N-terminal, cleaved; SUMO, N-terminal, cleaved) MEDAKNIKKGPAPFYPLEDGTAGEQLHKAMKRYALVPGTIAFTDAHIEVNITYAEYFEMSVRLAEAMKRYGLNTNHRIVVCSENSLQFFMPVLGALFIGVAVAPANDIYNERELLNSMNISQPTVVFVSKKGLQKILNVQKKLPIIQKIIIMDSKTDYQGFQSMYTFVTSHLPPGFNEYDFVPESFDRDK", "values": [{"measurement": "stoichiometry N", "result": 2}]}
